From the supplement of paper PMC9876800

Test system: peptide library, one residue held at a place counted from the S/T acceptor
Test: relative phosphorylation of the sub-library (ratio to the mean residue at this position); higher = residue favoured
Settings: human
Procedure, shortened: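 Relative sub-library phosphorylation is the ratio of each sub-library's signal to the mean residue at that position. The signal came from phosphorimaging of spots on streptavidin membranes, quantified by densitometry, after purified recombinant kinases reacted with biotinylated degenerate peptide sub-libraries in 384-well plates. Reactions held 50 μM peptide and 50 μM ATP spiked with γ-32P-ATP for 90 min under kinase-specific conditions.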

Chain of RIPK2, construct: aa2-317 (O43353 2-317, looked up): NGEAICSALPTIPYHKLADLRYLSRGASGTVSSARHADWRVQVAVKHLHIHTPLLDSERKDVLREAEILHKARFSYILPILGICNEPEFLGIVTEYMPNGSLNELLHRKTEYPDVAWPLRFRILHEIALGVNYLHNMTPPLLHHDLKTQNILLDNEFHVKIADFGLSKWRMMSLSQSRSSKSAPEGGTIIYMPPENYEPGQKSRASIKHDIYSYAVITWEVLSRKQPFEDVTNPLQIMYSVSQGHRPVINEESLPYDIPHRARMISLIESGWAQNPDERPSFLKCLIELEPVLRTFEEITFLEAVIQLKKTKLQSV
Chain of PRKACG, construct: Full length (P22612 whole entry, looked up): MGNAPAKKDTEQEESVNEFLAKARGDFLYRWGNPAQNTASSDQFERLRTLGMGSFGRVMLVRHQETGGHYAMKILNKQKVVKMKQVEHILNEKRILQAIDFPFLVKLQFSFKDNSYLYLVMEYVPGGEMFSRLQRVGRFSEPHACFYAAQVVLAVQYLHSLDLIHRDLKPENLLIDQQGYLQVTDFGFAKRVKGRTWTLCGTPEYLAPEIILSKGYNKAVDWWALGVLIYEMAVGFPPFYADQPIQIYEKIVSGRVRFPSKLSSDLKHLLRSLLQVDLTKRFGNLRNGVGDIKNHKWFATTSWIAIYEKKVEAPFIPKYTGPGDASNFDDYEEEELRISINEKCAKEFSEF
Chain of TGFBR2, construct: aa190-end (P37173 190-567, looked up): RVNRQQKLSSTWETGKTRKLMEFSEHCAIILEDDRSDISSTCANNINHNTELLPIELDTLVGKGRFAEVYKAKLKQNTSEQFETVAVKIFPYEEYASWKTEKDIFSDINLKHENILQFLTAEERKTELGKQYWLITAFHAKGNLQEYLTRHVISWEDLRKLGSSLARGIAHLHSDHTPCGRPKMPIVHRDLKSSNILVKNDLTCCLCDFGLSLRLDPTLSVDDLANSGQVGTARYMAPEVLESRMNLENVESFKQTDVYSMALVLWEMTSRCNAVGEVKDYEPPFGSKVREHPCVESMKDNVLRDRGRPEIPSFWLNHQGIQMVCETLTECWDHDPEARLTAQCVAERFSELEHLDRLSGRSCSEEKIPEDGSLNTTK
Chain of MAP3K8, construct: aa30-397 (P41279 30-397, looked up): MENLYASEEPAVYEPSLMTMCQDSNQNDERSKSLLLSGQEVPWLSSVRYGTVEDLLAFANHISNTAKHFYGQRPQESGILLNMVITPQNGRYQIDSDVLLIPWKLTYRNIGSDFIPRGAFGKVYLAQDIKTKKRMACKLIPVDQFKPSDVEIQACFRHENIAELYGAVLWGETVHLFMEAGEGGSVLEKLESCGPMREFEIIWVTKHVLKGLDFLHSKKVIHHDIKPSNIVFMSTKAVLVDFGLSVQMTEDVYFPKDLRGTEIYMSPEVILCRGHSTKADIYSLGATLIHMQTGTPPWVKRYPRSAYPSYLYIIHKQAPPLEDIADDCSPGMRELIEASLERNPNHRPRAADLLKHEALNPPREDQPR

PRKACG, construct: Full length (from UniProt P22612)
relative phosphorylation
Settings | at +1 | at +2 | at +3 | at +4 | at -1 | at -2 | at -3 | at -4 | at -5
A fixed | 0.696 | 1.22 | 0.896 | 0.974 | 0.795 | 0.472 | 0.682 | 0.944 | 1.09
D fixed | 0.44 | 0.969 | 0.917 | 0.885 | 0.473 | 0.197 | 0.322 | 0.595 | 0.569
E fixed | 0.469 | 0.676 | 0.951 | 0.985 | 0.452 | 0.215 | 0.344 | 0.665 | 0.577
F fixed | 1.58 | 1.13 | 1.06 | 0.761 | 0.709 | 0.578 | 0.441 | 0.653 | 0.754
G fixed | 0.804 | 1.08 | 1.26 | 1.17 | 1.21 | 0.565 | 0.846 | 1.09 | 1.09
H fixed | 1.05 | 1.45 | 1.39 | 1.14 | 1.11 | 1.08 | 1.35 | 1.3 | 1.42
I fixed | 1.57 | 0.902 | 0.819 | 1.16 | 0.343 | 0.227 | 0.289 | 0.564 | 0.63
K fixed | 1.08 | 0.812 | 1.08 | 0.978 | 2.41 | 4.09 | 2.19 | 1.85 | 1.97
L fixed | 1.32 | 0.961 | 0.87 | 0.866 | 0.746 | 0.324 | 0.297 | 0.582 | 0.627
M fixed | 1.51 | 0.926 | 0.805 | 0.879 | 0.959 | 0.414 | 0.49 | 0.873 | 0.713
N fixed | 0.851 | 0.942 | 0.921 | 1.04 | 1.15 | 0.689 | 0.776 | 1.01 | 0.965
P fixed | 0.295 | 0.941 | 1.05 | 1.28 | 1.16 | 0.445 | 1.03 | 1.06 | 0.86
Q fixed | 1.05 | 0.975 | 0.913 | 0.937 | 1.1 | 0.532 | 0.789 | 1.04 | 0.91
R fixed | 1.18 | 0.87 | 1.11 | 0.886 | 1.97 | 6.02 | 5.51 | 2.44 | 2.36
V fixed | 1.18 | 1.02 | 0.871 | 0.991 | 0.563 | 0.217 | 0.315 | 0.678 | 0.777
W fixed | 0.963 | 0.99 | 1.04 | 1.1 | 0.768 | 0.462 | 0.615 | 0.821 | 0.856
Y fixed | 0.969 | 1.14 | 1.05 | 0.979 | 1.09 | 0.478 | 0.716 | 0.847 | 0.824
pThr fixed | 0.817 | 0.71 | 0.919 | 1.52 | 0.455 | 0.542 | 0.792 | 0.954 | 0.769
pTyr fixed | 0.939 | 1.03 | 1.26 | 1.29 | 0.59 | 0.455 | 0.614 | 0.655 | 0.751

TGFBR2, construct: aa190-end (from UniProt P37173)
relative phosphorylation
Settings | at +1 | at +2 | at +3 | at +4 | at -1 | at -2 | at -3 | at -4 | at -5
A fixed | 0.597 | 1.09 | 0.846 | 0.874 | 0.646 | 0.441 | 0.835 | 0.987 | 1
D fixed | 0.508 | 0.616 | 0.509 | 0.57 | 0.715 | 4.02 | 1.25 | 1.01 | 0.775
E fixed | 0.77 | 0.466 | 0.485 | 0.529 | 0.775 | 5.47 | 1.24 | 0.907 | 0.713
F fixed | 1.27 | 0.826 | 1.04 | 0.789 | 1.02 | 0.412 | 0.859 | 0.952 | 0.97
G fixed | 0.63 | 1.36 | 1.29 | 1.08 | 0.67 | 0.665 | 1.05 | 1.08 | 1.11
H fixed | 0.872 | 1.16 | 1.18 | 1.09 | 1.04 | 0.478 | 0.882 | 1.13 | 1.1
I fixed | 1.69 | 1.1 | 1.05 | 1.06 | 0.757 | 0.327 | 0.748 | 0.851 | 0.9
K fixed | 0.531 | 1.26 | 1.12 | 1.43 | 1.03 | 0.447 | 0.855 | 0.91 | 1.2
L fixed | 1.32 | 0.584 | 1.07 | 0.839 | 1.38 | 0.366 | 0.717 | 0.814 | 0.901
M fixed | 2.09 | 0.826 | 0.922 | 0.919 | 1.34 | 0.484 | 0.907 | 0.872 | 0.809
N fixed | 0.801 | 0.891 | 0.941 | 0.85 | 0.812 | 0.877 | 0.982 | 1.08 | 0.908
P fixed | 0.271 | 0.89 | 1.12 | 1.33 | 1.1 | 0.365 | 1.09 | 1 | 0.95
Q fixed | 1.36 | 1.08 | 0.778 | 0.932 | 1.01 | 0.598 | 0.985 | 0.898 | 0.848
R fixed | 0.834 | 1.36 | 1.32 | 1.23 | 0.911 | 0.886 | 1.72 | 1 | 1.17
V fixed | 1.36 | 1.18 | 1.01 | 0.964 | 1.11 | 0.332 | 0.794 | 0.897 | 0.933
W fixed | 0.946 | 1.29 | 1.18 | 1.47 | 1.19 | 0.419 | 1.12 | 1.59 | 1.58
Y fixed | 1.14 | 1.02 | 1.15 | 1.06 | 1.49 | 0.41 | 0.973 | 1.02 | 1.13
pThr fixed | 1.55 | 0.529 | 0.488 | 0.539 | 0.594 | 1.2 | 0.884 | 0.863 | 0.765
pTyr fixed | 0.53 | 0.432 | 0.685 | 0.483 | 0.951 | 0.441 | 0.778 | 0.63 | 0.746

RIPK2, construct: aa2-317 (from UniProt O43353)
relative phosphorylation
Settings | at +1 | at +2 | at +3 | at +4 | at -1 | at -2 | at -3 | at -4 | at -5
A fixed | 0.347 | 0.349 | 0.463 | 0.669 | 0.597 | 0.592 | 0.889 | 0.727 | 1.01
D fixed | 0.267 | 0.348 | 0.308 | 0.731 | 1.09 | 0.599 | 0.412 | 0.738 | 0.674
E fixed | 0.265 | 0.481 | 0.291 | 0.563 | 0.726 | 0.431 | 0.409 | 0.655 | 0.669
F fixed | 2.32 | 1.73 | 3.03 | 1.2 | 1.31 | 1.12 | 1.17 | 1.15 | 1.44
G fixed | 0.316 | 0.414 | 0.503 | 0.789 | 0.615 | 0.882 | 0.712 | 0.728 | 0.893
H fixed | 0.643 | 1.41 | 0.734 | 1.11 | 1.29 | 1.54 | 0.905 | 1.02 | 0.985
I fixed | 2.75 | 1.96 | 1.31 | 0.975 | 1.11 | 0.86 | 1.27 | 1.12 | 1.13
K fixed | 0.367 | 1.29 | 0.628 | 1.18 | 0.766 | 0.734 | 0.983 | 0.739 | 0.874
L fixed | 1.41 | 1.17 | 1.12 | 0.98 | 1.53 | 1.15 | 1.6 | 1.1 | 1.15
M fixed | 1.4 | 1.12 | 1.41 | 0.967 | 1.74 | 1.18 | 1.2 | 1.23 | 1.17
N fixed | 0.369 | 0.622 | 0.498 | 0.86 | 0.932 | 0.869 | 0.626 | 0.949 | 0.73
P fixed | 0.166 | 0.299 | 0.277 | 0.879 | 0.394 | 0.365 | 0.537 | 0.624 | 0.781
Q fixed | 0.496 | 0.788 | 0.425 | 0.847 | 0.784 | 0.82 | 0.631 | 0.679 | 0.727
R fixed | 0.395 | 1.22 | 0.962 | 1.43 | 0.8 | 1.72 | 2.02 | 0.923 | 1.01
V fixed | 1.58 | 1.14 | 0.845 | 0.638 | 0.75 | 0.64 | 0.797 | 1.02 | 0.917
W fixed | 2.7 | 1.01 | 2.38 | 1.83 | 1.32 | 2.07 | 1.78 | 2.25 | 1.42
Y fixed | 1.22 | 1.65 | 1.81 | 1.34 | 1.24 | 1.42 | 1.05 | 1.35 | 1.42
pThr fixed | 0.578 | 0.83 | 0.416 | 0.82 | 0.77 | 0.688 | 0.707 | 1 | 0.808
pTyr fixed | 0.309 | 0.39 | 0.353 | 0.5 | 1.35 | 0.425 | 0.568 | 0.617 | 0.54

MAP3K8, construct: aa30-397 (from UniProt P41279)
relative phosphorylation
Settings | at +1 | at +2 | at +3 | at +4 | at -1 | at -2 | at -3 | at -4 | at -5
A fixed | 0.997 | 0.962 | 0.971 | 1.12 | 0.924 | 0.801 | 0.815 | 1.17 | 1.27
D fixed | 0.537 | 0.83 | 0.819 | 1.27 | 1.65 | 2 | 1.57 | 1.62 | 1.47
E fixed | 0.66 | 1.12 | 0.961 | 1.44 | 1.2 | 1.5 | 1.62 | 1.51 | 1.27
F fixed | 1.1 | 0.338 | 0.599 | 0.523 | 0.449 | 0.976 | 0.535 | 0.489 | 0.575
G fixed | 1.23 | 0.736 | 1.2 | 1.09 | 1.31 | 1.23 | 1.36 | 1.51 | 1.41
H fixed | 0.869 | 1.17 | 0.465 | 0.83 | 1.16 | 1.18 | 1.16 | 1.16 | 1.33
I fixed | 0.847 | 0.952 | 0.832 | 0.655 | 0.336 | 0.554 | 0.382 | 0.479 | 0.435
K fixed | 1.31 | 1.61 | 1.57 | 1.4 | 1.37 | 0.653 | 1.08 | 1.11 | 1.47
L fixed | 0.9 | 0.938 | 1.22 | 0.771 | 0.746 | 0.816 | 0.59 | 0.55 | 0.576
M fixed | 1.29 | 0.697 | 1.09 | 0.877 | 0.572 | 0.789 | 0.595 | 0.676 | 0.499
N fixed | 0.996 | 1.67 | 1.03 | 0.997 | 1.5 | 1.35 | 1.32 | 1.35 | 1.25
P fixed | 0.299 | 0.499 | 0.522 | 1.72 | 1.11 | 0.927 | 1.52 | 1.32 | 1.31
Q fixed | 1.36 | 1.9 | 1.21 | 1.09 | 1.28 | 0.913 | 1.16 | 1.01 | 0.943
R fixed | 1.31 | 1.5 | 1.73 | 1.02 | 1.41 | 0.717 | 1.15 | 1.05 | 1.08
V fixed | 1.07 | 1.25 | 0.992 | 0.809 | 0.601 | 0.519 | 0.446 | 0.536 | 0.694
W fixed | 0.806 | 0.382 | 0.78 | 0.689 | 0.591 | 0.805 | 0.835 | 0.707 | 0.834
Y fixed | 1.41 | 0.438 | 1.01 | 0.688 | 0.782 | 1.28 | 0.856 | 0.761 | 0.575
pThr fixed | 1.64 | 1.48 | 0.934 | 1.43 | 1.44 | 1.43 | 1.5 | 1.4 | 1.1
pTyr fixed | 0.716 | 1.83 | 1.08 | 1.17 | 1.51 | 0.871 | 1.49 | 0.882 | 1.1
